For this assay, the target named is biotin-labeled HNRNPA1 peptide carrying R194 symmetric dimethylation (SDMA). Put plainly: BLI; Octet-RED96; biotinylated R194 SDMA HNRNPA1 peptide immobilised on streptavidin biosensors at 10 µg/mL; ZMYND11-MYND serially diluted three-fold from 333 nM in PBST; 300 s association, 300 s dissociation; 1:1 binding model. (BLI is a label-free optical method that tracks binding on a fibre tip over time.)

These results are taken from PMC11438962.

For “His-tagged recombinant MYND domain of ZMYND11 (domain or fragment)”, the Kd – broadly, the concentration at which binding is half-saturated – was 3.5 nM.
